{"source": "paper PMC5435084", "about": "(Molecular Biology and Evolution, 2017)", "binders": {"B1": {"name": "SRGAP2A F-BARx-RhoGAP-SH3 (residues 1-799) (domain or fragment)", "chain": "not shown"}}, "key": {"[1]": {"biological_target": "SRGAP2A RhoGAP-SH3 domains (isolated) (human, UniProt O75044 485-1071)", "assay": "MST"}, "SEC [2]": {"biological_target": "the molecule itself", "assay": "SEC"}, "SEC [3]": {"biological_target": "the molecule itself", "assay": "SEC", "remark": "listed apart in the source"}, "[4]": {"biological_target": "B1", "assay": "SEC-MALS"}}, "note": "Like-named read-outs stand apart in the source and are kept apart here.", "data": [{"binder": "SRGAP2A F-BARx (extended F-BAR, residues 1-484) (domain or fragment, human, UniProt O75044 1-484, looked up, fluorescently labeled (in the MST only)) MTSPAKFKKDKEIIAEYDTQVKEIRAQLTEQMKCLDQQCELRVQLLQDLQDFFRKKAEIEMDYSRNLEKLAERFLAKTRSTKDQQFKKDQNVLSPVNCWNLLLNQVKRESRDHTTLSDIYLNNIIPRFVQVSEDSGRLFKKSKEVGQQLQDDLMKVLNELYSVMKTYHMYNADSISAQSKLKEAEKQEEKQIGKSVKQEDRQTPRSPDSTANVRIEEKHVRRSSVKKIEKMKEKRQAKYTENKLKAIKARNEYLLALEATNASVFKYYIHDLSDLIDQCCDLGYHASLNRALRTFLSAELNLEQSKHEGLDAIENAVENLDATSDKQRLMEMYNNVFCPPMKFEFQPHMGDMASQLCAQQPVQSELVQRCQQLQSRLSTLKIENEEVKKTMEATLQTIQDIVTVEDFDVSDCFQYSNSMESVKSTVSETFMSKPSIAKRRANQQETEQFYFTKMKEYLEGRNLITKLQAKHDLLQKTLGESQRT", "values": [{"measurement": "Kd", "setting": "[1]", "result": 3.5, "unit": "µM"}]}, {"binder": "B1", "values": [{"measurement": "stoichiometry N", "setting": "SEC [2]", "result": 2}]}, {"binder": "SRGAP2C F-BAR portion (F-BARC, SRGAP2C residues 1-355) (domain or fragment, human, UniProt P0DJJ0 1-355, looked up) MTSPAKFKKDKEIIAEYDTQVKEIRAQLTEQMKCLDQQCELRVQLLQDLQDFFRKKAEIEMDYSRNLEKLAEHFLAKTRSTKDQQFKKDQNVLSPVNCWNLLLNQVKWESRDHTTLSDIYLNNIIPRFVQVSEDSGRLFKKSKEVGQQLQDDLMKVLNELYSVMKTYHMYNADSISAQSKLKEAEKQEEKQIGKSVKQEDRQTPCSPDSTANVRIEEKHVRRSSVKKIEKMKEKHQAKYTENKLKAIKAQNEYLLALEATNASVFKYYIHDLSDLIDQCCDLGYHASLNRALRTFLSAELNLEQSKHEGLDAIENAVENLDATSDKQRLMEMYNNVFCPPMKFEFQPHMGDMASQ", "values": [{"measurement": "stoichiometry N", "setting": "SEC [3]", "result": 2}, {"measurement": "binding result", "setting": "[4]", "result": "binds"}]}, {"binder": "SRGAP2A F-BAR domain (F-BARA, residues 1-355) (domain or fragment, human, UniProt O75044 1-355, looked up, fluorescently labeled (in the MST only)) MTSPAKFKKDKEIIAEYDTQVKEIRAQLTEQMKCLDQQCELRVQLLQDLQDFFRKKAEIEMDYSRNLEKLAERFLAKTRSTKDQQFKKDQNVLSPVNCWNLLLNQVKRESRDHTTLSDIYLNNIIPRFVQVSEDSGRLFKKSKEVGQQLQDDLMKVLNELYSVMKTYHMYNADSISAQSKLKEAEKQEEKQIGKSVKQEDRQTPRSPDSTANVRIEEKHVRRSSVKKIEKMKEKRQAKYTENKLKAIKARNEYLLALEATNASVFKYYIHDLSDLIDQCCDLGYHASLNRALRTFLSAELNLEQSKHEGLDAIENAVENLDATSDKQRLMEMYNNVFCPPMKFEFQPHMGDMASQ", "values": [{"measurement": "stoichiometry N", "setting": "SEC [3]", "result": 2}, {"measurement": "Kd", "setting": "[1]", "result": 3, "unit": "µM"}]}]}
